Experimental data reported in patent US20190100563A1 (UNIVERSITY COURT OF THE UNIVERSITY OF EDINBURGH, published 2019).
Several values for one entry are separate records, joined by “and”; a condition that tells them apart may be missing. Equal values may be shown once.

T1: CFH 6-8 (recombinant construct corresponding to CFH CCPs 6-8) (human, UniProt P08603 321-509)
T1 sequence: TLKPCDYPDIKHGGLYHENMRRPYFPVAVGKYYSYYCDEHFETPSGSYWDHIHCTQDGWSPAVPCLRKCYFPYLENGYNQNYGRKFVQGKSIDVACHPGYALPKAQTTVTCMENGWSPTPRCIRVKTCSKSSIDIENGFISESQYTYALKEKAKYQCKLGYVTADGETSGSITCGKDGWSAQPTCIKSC

T2: CFH 8-15 (recombinant fragment, CCPs 8-15 of human CFH) (human, UniProt P08603 446-928)
T2 construct: also called CF8-15
T2 sequence: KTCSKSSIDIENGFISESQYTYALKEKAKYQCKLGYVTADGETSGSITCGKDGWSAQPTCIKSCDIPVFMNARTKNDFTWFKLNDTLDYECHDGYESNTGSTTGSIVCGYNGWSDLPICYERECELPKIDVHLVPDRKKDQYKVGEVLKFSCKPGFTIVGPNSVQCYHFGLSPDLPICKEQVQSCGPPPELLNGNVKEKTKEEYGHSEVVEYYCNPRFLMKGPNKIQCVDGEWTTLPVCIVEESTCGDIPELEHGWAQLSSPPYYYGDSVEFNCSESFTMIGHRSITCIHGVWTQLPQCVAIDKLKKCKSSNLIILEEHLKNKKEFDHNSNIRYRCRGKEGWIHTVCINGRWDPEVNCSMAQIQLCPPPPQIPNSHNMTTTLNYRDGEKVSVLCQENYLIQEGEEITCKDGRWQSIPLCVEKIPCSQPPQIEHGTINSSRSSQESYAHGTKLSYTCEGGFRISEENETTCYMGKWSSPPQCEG

T3: CFH 10-11 (recombinant fragment, CCPs 10-11 of human CFH) (human, UniProt P08603 567-686)
T3 sequence: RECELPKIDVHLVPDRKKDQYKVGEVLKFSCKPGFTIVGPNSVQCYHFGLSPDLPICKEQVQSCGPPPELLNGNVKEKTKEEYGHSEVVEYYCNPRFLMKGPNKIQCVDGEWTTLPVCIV

T4: CFH 10-15 (recombinant fragment, CCPs 10-15 of human CFH) (human, UniProt P08603 567-928)
T4 sequence: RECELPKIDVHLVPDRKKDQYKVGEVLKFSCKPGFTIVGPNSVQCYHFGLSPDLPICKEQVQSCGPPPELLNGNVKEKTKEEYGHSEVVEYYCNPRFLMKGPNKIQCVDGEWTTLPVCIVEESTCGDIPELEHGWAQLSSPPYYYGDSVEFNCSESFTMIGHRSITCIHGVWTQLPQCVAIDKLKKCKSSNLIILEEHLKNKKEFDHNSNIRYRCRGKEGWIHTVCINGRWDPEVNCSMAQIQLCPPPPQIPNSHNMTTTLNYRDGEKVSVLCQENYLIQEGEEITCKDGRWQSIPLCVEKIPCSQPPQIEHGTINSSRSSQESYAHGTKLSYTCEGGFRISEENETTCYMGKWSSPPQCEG

T5: CFH 8-9 (recombinant fragment, CCPs 8-9 of human CFH) (human, UniProt P08603 446-566)
T5 sequence: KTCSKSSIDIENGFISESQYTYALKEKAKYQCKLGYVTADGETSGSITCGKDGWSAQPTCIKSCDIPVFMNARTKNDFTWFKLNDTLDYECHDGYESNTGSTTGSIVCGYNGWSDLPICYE


Columns and labels:
[1] = target: T6, Human complement factor H purified from plasma (human, UniProt P08603 19-1231); test: cell-based or functional assay
T6 sequence (P08603 19-1231 limits assumed): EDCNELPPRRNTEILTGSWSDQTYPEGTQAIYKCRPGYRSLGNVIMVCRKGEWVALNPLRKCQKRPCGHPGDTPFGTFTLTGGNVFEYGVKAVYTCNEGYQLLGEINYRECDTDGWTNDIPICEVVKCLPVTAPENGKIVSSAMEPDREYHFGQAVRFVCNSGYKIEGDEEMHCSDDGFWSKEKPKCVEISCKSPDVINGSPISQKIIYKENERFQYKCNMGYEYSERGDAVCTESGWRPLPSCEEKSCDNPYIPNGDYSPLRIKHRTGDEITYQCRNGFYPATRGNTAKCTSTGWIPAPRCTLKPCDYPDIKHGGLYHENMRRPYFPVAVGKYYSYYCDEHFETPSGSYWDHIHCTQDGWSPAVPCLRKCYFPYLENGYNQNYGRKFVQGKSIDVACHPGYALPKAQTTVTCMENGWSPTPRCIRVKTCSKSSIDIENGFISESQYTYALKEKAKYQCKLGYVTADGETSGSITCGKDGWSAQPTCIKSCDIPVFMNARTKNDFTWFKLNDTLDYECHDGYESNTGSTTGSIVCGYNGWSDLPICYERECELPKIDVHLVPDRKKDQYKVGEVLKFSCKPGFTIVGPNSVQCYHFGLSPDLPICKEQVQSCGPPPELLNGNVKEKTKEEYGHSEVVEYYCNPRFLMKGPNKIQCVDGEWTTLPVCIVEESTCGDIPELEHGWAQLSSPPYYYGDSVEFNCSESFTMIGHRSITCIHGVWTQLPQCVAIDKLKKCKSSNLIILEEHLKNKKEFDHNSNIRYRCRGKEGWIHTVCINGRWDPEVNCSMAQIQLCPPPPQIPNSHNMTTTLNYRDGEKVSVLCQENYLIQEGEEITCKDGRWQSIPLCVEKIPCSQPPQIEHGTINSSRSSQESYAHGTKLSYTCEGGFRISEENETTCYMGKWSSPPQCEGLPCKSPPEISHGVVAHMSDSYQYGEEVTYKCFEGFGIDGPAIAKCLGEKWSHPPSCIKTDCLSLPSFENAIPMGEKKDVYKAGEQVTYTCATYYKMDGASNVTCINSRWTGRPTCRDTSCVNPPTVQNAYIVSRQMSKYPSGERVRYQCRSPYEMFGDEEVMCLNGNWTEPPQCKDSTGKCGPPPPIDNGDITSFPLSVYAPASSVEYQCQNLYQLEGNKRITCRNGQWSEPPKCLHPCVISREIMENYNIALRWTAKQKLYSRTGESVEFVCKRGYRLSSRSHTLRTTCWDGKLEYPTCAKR

[2] = target: T7, Recombinant human CFH, wild-type sequence, from Pichia pastoris (human, UniProt P08603 19-1231); test: cell-based or functional assay
T7 sequence (P08603 19-1231 limits assumed): as above

[3] = target: Human C3b (plasma-purified) (human, UniProt P01024 23-667; P01024 749-1663); test: SPR, amine-coupled C3 fragments on C1 chip
Human C3b (plasma-purified), sequence (P01024 23-667 limits assumed, chain 1 of 2): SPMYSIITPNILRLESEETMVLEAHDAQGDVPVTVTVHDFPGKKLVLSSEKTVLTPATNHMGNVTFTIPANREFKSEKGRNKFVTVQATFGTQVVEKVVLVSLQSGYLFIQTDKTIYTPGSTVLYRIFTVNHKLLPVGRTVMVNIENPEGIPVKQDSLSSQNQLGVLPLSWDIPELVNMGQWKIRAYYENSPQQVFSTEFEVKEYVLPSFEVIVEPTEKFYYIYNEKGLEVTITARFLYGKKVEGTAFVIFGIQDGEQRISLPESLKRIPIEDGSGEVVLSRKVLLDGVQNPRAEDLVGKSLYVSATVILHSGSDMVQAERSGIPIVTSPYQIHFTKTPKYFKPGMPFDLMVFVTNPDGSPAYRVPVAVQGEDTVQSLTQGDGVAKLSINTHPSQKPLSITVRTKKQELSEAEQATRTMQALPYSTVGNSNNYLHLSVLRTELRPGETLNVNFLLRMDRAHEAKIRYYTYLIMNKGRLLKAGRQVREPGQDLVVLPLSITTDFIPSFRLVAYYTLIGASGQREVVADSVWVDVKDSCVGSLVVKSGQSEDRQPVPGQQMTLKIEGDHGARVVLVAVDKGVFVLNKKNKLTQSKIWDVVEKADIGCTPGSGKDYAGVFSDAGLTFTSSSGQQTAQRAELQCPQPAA
Human C3b (plasma-purified), sequence (P01024 749-1663 limits assumed, chain 2 of 2): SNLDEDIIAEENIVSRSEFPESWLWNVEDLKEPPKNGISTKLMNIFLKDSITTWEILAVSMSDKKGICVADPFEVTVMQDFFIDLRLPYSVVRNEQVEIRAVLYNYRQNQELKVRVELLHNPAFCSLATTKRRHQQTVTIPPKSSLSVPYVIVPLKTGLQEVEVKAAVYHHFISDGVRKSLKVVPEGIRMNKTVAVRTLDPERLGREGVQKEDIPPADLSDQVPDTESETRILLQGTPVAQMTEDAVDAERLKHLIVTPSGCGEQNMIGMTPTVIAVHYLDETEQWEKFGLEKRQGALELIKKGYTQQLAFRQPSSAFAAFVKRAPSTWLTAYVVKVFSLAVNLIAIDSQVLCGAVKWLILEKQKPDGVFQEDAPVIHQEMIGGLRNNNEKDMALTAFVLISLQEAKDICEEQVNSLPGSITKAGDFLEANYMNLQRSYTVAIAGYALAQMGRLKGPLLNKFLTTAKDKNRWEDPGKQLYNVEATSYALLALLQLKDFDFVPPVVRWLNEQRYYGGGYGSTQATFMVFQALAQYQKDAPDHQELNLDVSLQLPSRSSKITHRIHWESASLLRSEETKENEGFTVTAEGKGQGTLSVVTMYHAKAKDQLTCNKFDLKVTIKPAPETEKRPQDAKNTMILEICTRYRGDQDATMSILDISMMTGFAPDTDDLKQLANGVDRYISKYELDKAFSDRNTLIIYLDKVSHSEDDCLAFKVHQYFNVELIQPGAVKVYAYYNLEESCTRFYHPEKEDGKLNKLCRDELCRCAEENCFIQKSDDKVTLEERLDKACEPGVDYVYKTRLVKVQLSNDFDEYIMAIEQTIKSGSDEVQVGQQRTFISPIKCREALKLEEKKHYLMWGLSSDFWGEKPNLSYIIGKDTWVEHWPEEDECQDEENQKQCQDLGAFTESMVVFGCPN

[4] = target: Human C3c (plasma-purified) (human, UniProt P01024 23-667; P01024 749-954; P01024 1321-1663); test: SPR, amine-coupled C3 fragments on C1 chip
Human C3c (plasma-purified), sequence (P01024 23-667, chain 1 of 3): as the sequence (P01024 23-667 limits assumed, chain 1 of 2) above
Human C3c (plasma-purified), sequence (P01024 749-954, chain 2 of 3): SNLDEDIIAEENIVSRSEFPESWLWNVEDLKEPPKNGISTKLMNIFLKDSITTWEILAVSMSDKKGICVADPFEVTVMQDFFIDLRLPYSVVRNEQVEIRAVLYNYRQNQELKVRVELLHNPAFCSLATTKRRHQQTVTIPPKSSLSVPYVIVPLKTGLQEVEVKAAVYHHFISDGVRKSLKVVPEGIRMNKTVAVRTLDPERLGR
Human C3c (plasma-purified), sequence (P01024 1321-1663, chain 3 of 3): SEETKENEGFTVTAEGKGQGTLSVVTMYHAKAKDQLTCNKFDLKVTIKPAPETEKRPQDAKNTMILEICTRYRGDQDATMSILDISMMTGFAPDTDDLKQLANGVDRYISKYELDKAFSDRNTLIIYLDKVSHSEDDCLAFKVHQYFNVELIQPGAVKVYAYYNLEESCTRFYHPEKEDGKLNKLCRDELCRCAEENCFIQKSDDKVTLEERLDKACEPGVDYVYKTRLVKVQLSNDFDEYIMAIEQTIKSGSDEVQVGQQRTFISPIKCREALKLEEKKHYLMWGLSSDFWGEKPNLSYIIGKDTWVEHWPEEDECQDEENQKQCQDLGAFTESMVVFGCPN

[5] = target: T8, Human C3d (plasma-purified) (human, UniProt P01024 1002-1303); test: SPR, amine-coupled C3 fragments on C1 chip
T8 construct: domain: TED; also called TED of C3b
T8 sequence (P01024 1002-1303 limits assumed): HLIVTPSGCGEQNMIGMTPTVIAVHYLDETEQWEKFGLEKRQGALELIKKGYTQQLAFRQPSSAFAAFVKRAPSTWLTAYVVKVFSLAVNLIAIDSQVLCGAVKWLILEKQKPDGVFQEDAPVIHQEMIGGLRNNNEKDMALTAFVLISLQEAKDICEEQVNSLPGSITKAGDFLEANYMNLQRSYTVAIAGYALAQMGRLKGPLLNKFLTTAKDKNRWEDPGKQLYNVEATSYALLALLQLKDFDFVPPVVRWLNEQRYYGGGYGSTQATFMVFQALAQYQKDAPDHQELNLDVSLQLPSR

[6] = target: T1, CFH 6-8 (recombinant construct …); test: SPR, sPspCN on NTA/Ni2+ chip
[7] = target: T2, CFH 8-15 (recombinant fragment, CCPs …); test: SPR, sPspCN on NTA/Ni2+ chip
[8] = target: T3, CFH 10-11 (recombinant fragment, CCPs …); test: SPR, sPspCN on NTA/Ni2+ chip
[9] = target: T4, CFH 10-15 (recombinant fragment, CCPs …); test: SPR, immobilised sPspCN
[10] = target: T6, Human complement factor H purified from …; test: not stated there (SPR in the examples)
[11] = target: T6, Human complement factor H purified from …; test: SPR, sPspCN on NTA/Ni2+ chip, CFH as analyte, 1:1 kinetic fit
[12] = target: T7, Recombinant human CFH, wild-type …; test: SPR, sPspCN on NTA/Ni2+ chip, rCFH as analyte, 1:1 kinetic fit
[13] = target: T2, CFH 8-15 (recombinant fragment, CCPs …); test: SPR, sPspCN on NTA/Ni2+ chip, CFH 8-15 as analyte, 1:1 kinetic fit
[14] = target: T9, Recombinant human CFH (D1119G) from Pichia pastoris (human, UniProt P08603 19-1231); test: SPR, sPspCN on NTA/Ni2+ chip, rCFH-D1119G as analyte, 1:1 kinetic fit
T9 construct: also called rCFH-D1119G; rCFH (D1119G)
T9 sequence (P08603 19-1231 D1119G limits assumed): as the sequence (P08603 19-1231 limits assumed) above, with D1101G counted along it

[15] = target: T5, CFH 8-9 (recombinant fragment, CCPs 8-9 …); test: SPR, sPspCN on NTA/Ni2+ chip, CFH 8-9 concentration series, equilibrium method

Binder	inhibition of haemolysis of PNH-like erythrocytes by acidified normal human serum, IC50 [1] [nM]	rate of decay acceleration of C3b.Bb (SPR-based assay) [2] [fold]	binding result [3]	binding result [4]	binding result [5]	binding result [6]	Kd [7]	binding result [8]	binding result [9]	Kd [10] [pM]	Kd [11] [pM]	Kd [12] [pM]	Kd [13] [nM]	Kd [14] [nM]	Kd [15] [nM]
PspCN (cleaved, PspC residues 37-140, S. pneumoniae strain D39) (other) ATENEGSTQAATSSNMAKTEHRKAAKQVVDEYIEKMLREIQLDRRKHTQNVALNIKLSAIKTKYLRELNVLEEKSKDELPSEIKAKLDAAFEKFKKDTLKPGEK	28	~10	no binding	no binding	no binding	–	–	–	–	–	–	–	–	–	–
sPspCN (N-terminally hexaHis-SUMO-tagged PspC residues 37-140, S. pneumoniae strain D39) (other, not shown: N-terminal hexaHis-SUMO tag from the pE-SUMOpro Kan vector) ATENEGSTQAATSSNMAKTEHRKAAKQVVDEYIEKMLREIQLDRRKHTQNVALNIKLSAIKTKYLRELNVLEEKSKDELPSEIKAKLDAAFEKFKKDTLKPGEK	–	–	–	–	–	no binding	1 nM and 2 nM	no binding	no binding (tested: 50 nM (from the legend))	~0.05	0.045	0.053	1.3	0.012	26
